Experimental findings from the supplement of paper PMC10724198 are described below.

± gives the standard deviation of the averaged measurements.

In the data set the test system is Saccharomyces cerevisiae. The data set can be described thus: protein stability index of tFT-peptide fusion (C-terminal peptide) (PSI (0-1 scale)); higher = more stable (slower turnover). Conditions: temperature: 30 C. The procedure:
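MPS profiling in S. cerevisiae of the yeast C-terminome library: the last 12 aa of each annotated ORF are fused to the C-terminus of a sfGFP-mCherry timer, after a GGGS linker. Cells are FACS-sorted into 8 mCherry/sfGFP bins and deep-sequenced. PSI runs from 0 (unstable) to 1 (stable); wild type and das1Δ backgrounds, two technical replicates each.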

The mark [1] stands for this setting: genetic background: das1 deletion.

Take FVLIVLGLLTYL [GET2 C-terminal 12 aa]: the protein stability index runs as follows: under setting [1], 0.364 ± 0.0094; (genetic background: wild type) 0.38 ± 0.019.

For the sequence FVSHSRFFNRGT [VPS53 C-terminal 12 aa], the protein stability index by setting is: under setting [1], 0.684 ± 0.03; (genetic background: wild type) 0.6958 ± 0.0033.

On to FYIDKFQVREVK [SUC2 C-terminal 12 aa], for which the protein stability index under setting [1] was 0.7059 ± 0.0061 and the protein stability index (genetic background: wild type) turned out to be 0.683 ± 0.038.

In turn, “GAAIAAGVAFLF [YCL048W-A C-terminal 12 aa]” yielded a protein stability index under setting [1] of 0.716 ± 0.011 and a protein stability index (genetic background: wild type) of 0.538 ± 0.021.

Take GAGIMALIGKWA [ZRT1 C-terminal 12 aa]: the protein stability index runs as follows: under setting [1], 0.687 ± 0.017; (genetic background: wild type) 0.661 ± 0.022.

As to GALLAGAAALLL [CCW12 C-terminal 12 aa], the protein stability index was 0.7007 ± 0.0036 under setting [1] and 0.698 ± 0.019 (genetic background: wild type).

As for GAQIISLDEDVF [GIP1 C-terminal 12 aa], the protein stability index reads like this: under setting [1], 0.715 ± 0.045; (genetic background: wild type) 0.716 ± 0.037.

GEGESIDDKLTD [STB1 C-terminal 12 aa] yielded a protein stability index under setting [1] of 0.6976 ± 0.00096 and a protein stability index (genetic background: wild type) of 0.733 ± 0.054.

Turning to GESISMLFEHGW [PRS5 C-terminal 12 aa], the protein stability index runs as follows: under setting [1], 0.719 ± 0.012; (genetic background: wild type) 0.7458 ± 0.0051.

On to GESVDKVTKNEQ [YPR114W C-terminal 12 aa], for which the protein stability index came to 0.691 ± 0.011 under setting [1] and 0.662 ± 0.014 (genetic background: wild type).

In the case of GETDSKIKYKYR [SND2 C-terminal 12 aa], the protein stability index reads like this: under setting [1], 0.712 ± 0.06; (genetic background: wild type) 0.573 ± 0.026.

As for GFASLIKDFKKK [NET1 C-terminal 12 aa], the protein stability index amounted to 0.672 ± 0.018 under setting [1] and 0.685 ± 0.043 (genetic background: wild type).

With GGGYLTSLKLFI [YOR041C C-terminal 12 aa], the protein stability index under setting [1] was found to be 0.68787 ± 0.00068 and the protein stability index (genetic background: wild type) came to 0.681 ± 0.031.

As to GGNLPQGYFYTQ [GTS1 C-terminal 12 aa], the protein stability index runs as follows: under setting [1], 0.707 ± 0.0075; (genetic background: wild type) 0.69615 ± 0.00011.

With GIRRIVHEPLGI [MTE1 C-terminal 12 aa], the protein stability index reads like this: under setting [1], 0.733 ± 0.016; (genetic background: wild type) 0.729 ± 0.045.

Consider GIVRHLIDSVKL [ACS1 C-terminal 12 aa], for which the protein stability index was 0.695 ± 0.012 under setting [1] and 0.6884 ± 0.0041 (genetic background: wild type).

As for GKGAIDGFFKRK [RNH202 C-terminal 12 aa], the protein stability index runs as follows: under setting [1], 0.694 ± 0.03; (genetic background: wild type) 0.6575 ± 0.004.

For GLEFHDVEDRIA [PEX18 C-terminal 12 aa], the protein stability index turned out to be 0.7047 ± 0.0036 under setting [1] and 0.702 ± 0.013 (genetic background: wild type).

With GLKGLFPTSYCK [BZZ1 C-terminal 12 aa], the protein stability index turned out to be 0.702 ± 0.039 under setting [1] and 0.732 ± 0.02 (genetic background: wild type).

Turning to GLQKKNIKIHGF [SUI1 C-terminal 12 aa], the protein stability index under setting [1] was 0.699 ± 0.024 and the protein stability index (genetic background: wild type) was 0.684 ± 0.074.

GQGTTLGGPFFP [ALB1 C-terminal 12 aa]: the protein stability index by setting is: under setting [1], 0.724 ± 0.019; (genetic background: wild type) 0.7215 ± 0.0052.

On to GRENGDVNIWAV [MDV1 C-terminal 12 aa], for which the protein stability index by setting is: under setting [1], 0.702 ± 0.013; (genetic background: wild type) 0.715 ± 0.0099.

For GRYAQIHEKHIE [ASN1 C-terminal 12 aa], the protein stability index reads like this: under setting [1], 0.7022 ± 0.0044; (genetic background: wild type) 0.691 ± 0.089.

GSAAVAGALLLL [YNL190W C-terminal 12 aa] registered a protein stability index under setting [1] of 0.689 ± 0.02 and a protein stability index (genetic background: wild type) of 0.664 ± 0.023.

In the case of GSSLITEGVYVI [NSE1 C-terminal 12 aa], the protein stability index runs as follows: under setting [1], 0.686 ± 0.021; (genetic background: wild type) 0.683 ± 0.028.

Regarding GSVPANWNWSSF [PIB2 C-terminal 12 aa], the protein stability index turned out to be 0.739 ± 0.03 under setting [1] and 0.699 ± 0.048 (genetic background: wild type).

Sequence GTVCYGMIEIFF [VTC5 C-terminal 12 aa] had a protein stability index under setting [1] of 0.596 ± 0.009 and a protein stability index (genetic background: wild type) of 0.616 ± 0.013.

GVITPVYFPLRW [YDR215C C-terminal 12 aa]: the protein stability index is 0.725 ± 0.008 under setting [1] and 0.715 ± 0.017 (genetic background: wild type).

Consider GYACPTHYLREM [MXR1 C-terminal 12 aa], for which the protein stability index is 0.6899 ± 0.0052 under setting [1] and 0.7169 ± 0.0063 (genetic background: wild type).

As for HEKRTEEVARYA [YGR026W C-terminal 12 aa], the protein stability index by setting is: under setting [1], 0.7173 ± 0.0035; (genetic background: wild type) 0.6604 ± 0.0066.

In the case of HEVDTEKINIFQ [YML003W C-terminal 12 aa], the protein stability index by setting is: under setting [1], 0.729 ± 0.018; (genetic background: wild type) 0.697 ± 0.026.

Take HGGNVSSSTYQA [GND1 C-terminal 12 aa]: the protein stability index reads like this: under setting [1], 0.685 ± 0.013; (genetic background: wild type) 0.696 ± 0.029.

With HGNDFLQHVNRK [RSM22 C-terminal 12 aa], the protein stability index turned out to be 0.716 ± 0.03 under setting [1] and 0.7065 ± 0.0016 (genetic background: wild type).

“HIFYFVLSYSEW [YIL030W-A C-terminal 12 aa]” gave a protein stability index under setting [1] of 0.172 ± 0.022 and a protein stability index (genetic background: wild type) of 0.192 ± 0.0083.

Consider HIREDYLRQFGN [KTR5 C-terminal 12 aa], for which the protein stability index is, setting by setting: under setting [1], 0.691 ± 0.027; (genetic background: wild type) 0.616 ± 0.022.

Regarding HKSGKLLLPVYI [ECO1 C-terminal 12 aa], the protein stability index stood at 0.636 ± 0.0084 under setting [1] and 0.619 ± 0.03 (genetic background: wild type).

Turning to HLQRCLSRGARR [SGF11 C-terminal 12 aa], the protein stability index under setting [1] came out at 0.698 ± 0.016 and the protein stability index (genetic background: wild type) came to 0.759 ± 0.039.

On to HNILDRCLKRLS [RKM3 C-terminal 12 aa], for which the protein stability index under setting [1] came out at 0.699 ± 0.03 and the protein stability index (genetic background: wild type) came out at 0.716 ± 0.013.

Regarding HNPSLWSCIFGK [SWS2 C-terminal 12 aa], the protein stability index reads like this: under setting [1], 0.716 ± 0.02; (genetic background: wild type) 0.714 ± 0.029.

Take HNVCGRAFSLPL [HSL7 C-terminal 12 aa]: the protein stability index turned out to be 0.7123 ± 0.0037 under setting [1] and 0.677 ± 0.035 (genetic background: wild type).

With HQKARSSYCCIQ [XDJ1 C-terminal 12 aa], the protein stability index by setting is: under setting [1], 0.759 ± 0.02; (genetic background: wild type) 0.706 ± 0.0085.

On to HRIASKIRSKLR [GIP4 C-terminal 12 aa], for which the protein stability index was 0.686 ± 0.0021 under setting [1] and 0.714 ± 0.03 (genetic background: wild type).

As to HTSVKALQRMTW [CTH1 C-terminal 12 aa], the protein stability index under setting [1] turned out to be 0.7271 ± 0.0051 and the protein stability index (genetic background: wild type) is 0.6829 ± 0.0024.

As for “HWLQLKPGQPMY [MF(ALPHA)1 C-terminal 12 aa]”, the protein stability index runs as follows: under setting [1], 0.7177 ± 0.0044; (genetic background: wild type) 0.6822 ± 0.0032.

For “HYSPFYQLPLIF [YGR240C-A C-terminal 12 aa]”, the protein stability index reads like this: under setting [1], 0.683 ± 0.022; (genetic background: wild type) 0.575 ± 0.0067.

Consider IAPEVTYRGFIE [RIM9 C-terminal 12 aa], for which the protein stability index under setting [1] was determined as 0.689 ± 0.027 and the protein stability index (genetic background: wild type) was 0.685 ± 0.03.

On to IDEIYEDKWLKI [PSK2 C-terminal 12 aa], for which the protein stability index by setting is: under setting [1], 0.727 ± 0.027; (genetic background: wild type) 0.74 ± 0.047.

As to IDLVLVVNVLSL [YCR064C C-terminal 12 aa], the protein stability index came out at 0.425 ± 0.015 under setting [1] and 0.428 ± 0.0062 (genetic background: wild type).

As to IDTWEIKFNELF [YLR287C C-terminal 12 aa], the protein stability index reads like this: under setting [1], 0.732 ± 0.042; (genetic background: wild type) 0.6954 ± 0.0012.

Consider IELWETFYQTNL [VPS5 C-terminal 12 aa], for which the protein stability index stood at 0.745 ± 0.011 under setting [1] and 0.7177 ± 0.0056 (genetic background: wild type).

Consider IESTLSNKLSIN [YCR013C C-terminal 12 aa], for which the protein stability index was 0.696 ± 0.024 under setting [1] and 0.674 ± 0.014 (genetic background: wild type).

For the sequence IFTSGSKSMKDL [ALG6 C-terminal 12 aa], the protein stability index runs as follows: under setting [1], 0.73 ± 0.01; (genetic background: wild type) 0.671 ± 0.0092.

As to IFVAILLRYAKI [PCA1 C-terminal 12 aa], the protein stability index by setting is: under setting [1], 0.243 ± 0.013; (genetic background: wild type) 0.228 ± 0.006.

Regarding IFVGETIFFFLF [YDR053W C-terminal 12 aa], the protein stability index reads like this: under setting [1], 0.625 ± 0.016; (genetic background: wild type) 0.536 ± 0.018.

Take “IFYLRFPSYIRG [YJR151W-A C-terminal 12 aa]”: the protein stability index is, setting by setting: under setting [1], 0.614 ± 0.017; (genetic background: wild type) 0.615 ± 0.0023.

Regarding IGRENENENEDD [POP5 C-terminal 12 aa], the protein stability index came out at 0.688 ± 0.037 under setting [1] and 0.704 ± 0.058 (genetic background: wild type).

Take IHTPTIPKRSLT [MCX1 C-terminal 12 aa]: the protein stability index by setting is: under setting [1], 0.7149 ± 0.0019; (genetic background: wild type) 0.767 ± 0.052.

Sequence IIGALNLYDGLI [FRQ1 C-terminal 12 aa] registered a protein stability index under setting [1] of 0.737 ± 0.017 and a protein stability index (genetic background: wild type) of 0.763 ± 0.12.

Consider IIGIYYVLKWLR [BOS1 C-terminal 12 aa], for which the protein stability index is, setting by setting: under setting [1], 0.3507 ± 0.0021; (genetic background: wild type) 0.392 ± 0.0089.

For “IKLARRLRGERS [YBR010W; YNL031C C-terminal 12 aa]”, the protein stability index by setting is: under setting [1], 0.6941 ± 0.0047; (genetic background: wild type) 0.68 ± 0.012.

Regarding IKLIDFNETSLT [MCM22 C-terminal 12 aa], the protein stability index is 0.68 ± 0.008 under setting [1] and 0.675 ± 0.0072 (genetic background: wild type).

Take IKRLDANTDFNI [MFB1 C-terminal 12 aa]: the protein stability index runs as follows: under setting [1], 0.678 ± 0.019; (genetic background: wild type) 0.668 ± 0.024.

Turning to ILDDTRQALGNT [PCL8 C-terminal 12 aa], the protein stability index runs as follows: under setting [1], 0.703 ± 0.034; (genetic background: wild type) 0.737 ± 0.013.

For the sequence ILKELSNLETLY [RPB4 C-terminal 12 aa], the protein stability index by setting is: under setting [1], 0.7182 ± 0.007; (genetic background: wild type) 0.737 ± 0.051.

“ILNCVGSAKTSG [YBR298C-A C-terminal 12 aa]”: the protein stability index turned out to be 0.68417 ± 0.00062 under setting [1] and 0.666 ± 0.019 (genetic background: wild type).

Consider ILRNASQIVSSV [VPS1 C-terminal 12 aa], for which the protein stability index reads like this: under setting [1], 0.7029 ± 0.0038; (genetic background: wild type) 0.6942 ± 0.0029.

For ILRPLELKYFGR [FCY2 C-terminal 12 aa], the protein stability index was 0.707 ± 0.029 under setting [1] and 0.675 ± 0.027 (genetic background: wild type).
